Residue numbers refer to the chain shown, from its start. Names may count otherwise.
B1: z5-XVT458 (antibody, human IgG1, kappa, V domains shown)
VH: QVQLVQSGAEVKKPGASVKVSCKASGYTFTNFYIHWVRQAPGQGLEWMGSIYPNYGDTAYNQKFKDRATMTTDKSTSTAYMELRSLRSDDTAVYYCARGYSYAMDYWGQGTTVTVSS
VL: DIQMTQSPSSVSASVGDRVTITCSASQGISGDLNWYQQKPGKAPKLLIYHTSSLHSGVPSRFSGSGSGTDFTLTISSLQPEDFATYYCQYYSKDLLTFGGGTKLEIKR
notes: hIgG1; numbering as for z1; also called GH + V067A + T073K
B2: z0-XVT458 (antibody, human IgG1, kappa, V domains shown)
VH: B1 VH with A68V, K74T
VL: B1 VL
notes: hIgG1; also called GH + uVL
B3: z4-XVT458 (antibody, human IgG1, kappa, V domains shown)
VH: B1 VH with T72V, K74T
VL: B1 VL
notes: hIgG1; numbering as for z1; also called GH + V067A + T071V
B4: z6-XVT458 (antibody, human IgG1, kappa, V domains shown)
VH: B1 VH with A68V, T72V
VL: B1 VL
notes: hIgG1; numbering as for z1; also called GH + T071V + T073K
B5: z3-XVT458 (antibody, human IgG1, kappa, V domains shown)
VH: B1 VH with A68V
VL: B1 VL
notes: hIgG1; numbering as for z1; also called GH + T073K
B6: z1-XVT458 (antibody, human IgG1, kappa, V domains shown)
VH: B1 VH with K74T
VL: B1 VL
notes: hIgG1; also called GH + V067A
B7: z7-XVT458 (antibody, human IgG1, kappa, V domains shown)
VH: B1 VH with T72V
VL: B1 VL
notes: hIgG1; numbering as for z1; also called GH + V067A + T071V + T073K
B8: ZJN296-0 (antibody, human IgG1, V domains shown)
VH: QVQLVQSGAEVKKPGASVKVSCKASGYDFTSHWMHWVRQAPGQGLEWMGAIDPSDSYTNYNQKFKGRVTMTTDTSTSTAYMELRSLRSDDTAVYYCARSPFDYWGQGTTVTVSS
VL: DIQMTQSPSSLSASVGDRVTITCKASQDVSTAVAWYQQKPGKAPKLLIYSASYRYTGVPSRFSGSGSGTDFTFTISSLQPEDIATYYCQQHYSFPFTFGQGTKLEIK
notes: human IgG1; also called humanized ZJN296-0; GH + GL
B9: ZJN296-2 (antibody, V domains shown)
VH: B8 VH with T72V
VL: B8 VL
notes: human IgG1; also called GH + T071V, GL
B10: ZJN296-6 (antibody, V domains shown)
VH: B8 VH with T72V, T74R
VL: B8 VL
notes: human IgG1; also called GH + T071V + T073R, GL
B11: ZJN296-3 (antibody, V domains shown)
VH: B8 VH with T74R
VL: B8 VL
notes: human IgG1; also called GH + T073R, GL
B12: 21A08Ap1 (antibody, V domains shown)
VH: EVQLLESGGGLVQPGGSLRLSCAASGFTFSINAMTWVRQAPGKGLEWVSTISGSGFSTYYADSLKGRFTISRDNSKNTLYLQMNSLRAEDTAVYYCAKEVYGDYWGQGTLVTVSS
VL: RSVLTQPPSASGTPGQRVSISCSGASSNIGSQSVFWYQQLPGTAPKLLIYSNNQRPSGVPDRFSGSKSGTSASLAISGLRSEDEADYYCAAWDDSLSIWVFGGGTKLTVL
notes: IgG with lambda light chain; also called 21A08p1; 21A8Ap1
B13: 21A08Ap3 (antibody, V domains shown)
VH: B12 VH
VL: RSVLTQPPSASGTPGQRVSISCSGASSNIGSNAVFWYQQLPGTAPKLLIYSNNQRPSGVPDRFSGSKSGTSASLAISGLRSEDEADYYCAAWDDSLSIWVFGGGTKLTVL
notes: IgG
B14: 21A08Ap2 (antibody, V domains shown)
VH: B12 VH
VL: B12 VL with Q32S
notes: IgG with lambda light chain

target: T1, cynoPD-1 His (AcroBiosystems PD1-C5223) (cynomolgus monkey, UniProt B0LAJ3 25-170); experiment: SPR, Ab captured, PD-1 analyte
T1 construct: also called cPD-1; cynomolgus PD-1 His-tagged
Protocol: (§1) Anti-human Fc IgG (Jackson) was immobilized on amine reactive CM5 chips (GE Healthcare) using 1×HBS-EP+ running buffer (GE Healthcare). The test antibodies were captured at flow rate 10 μl/min with 30 s contact time. […] Regeneration was carried out with 10 mM Glycine-HCl, pH 1.5 at flow rate 10 μL/min. This protocol is to be used, unless stated otherwise, in determination of Kd wherever used to define the KD of antibodies specified herein, with adaptions where necessary with regard to the nature of the interaction partners.

T1 sequence (B0LAJ3 entry or part of it limits assumed): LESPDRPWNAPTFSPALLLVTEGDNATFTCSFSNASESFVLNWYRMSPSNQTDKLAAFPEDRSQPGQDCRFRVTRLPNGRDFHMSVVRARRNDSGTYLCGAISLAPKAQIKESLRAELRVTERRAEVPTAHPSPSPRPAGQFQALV

Row | Binder | Kd | koff | kon
1 | B1 | 57.3 nM | 0.00336 s⁻¹ | 58600 M⁻¹ s⁻¹
2 | B2 | 56.7 nM | 0.00358 s⁻¹ | 63200 M⁻¹ s⁻¹
3 | B3 | 51 nM | 0.00323 s⁻¹ | 63300 M⁻¹ s⁻¹
4 | B4 | 53.8 nM | 0.00314 s⁻¹ | 58400 M⁻¹ s⁻¹
5 | B5 | 57.7 nM | 0.00331 s⁻¹ | 57400 M⁻¹ s⁻¹
6 | B6 | 57.3 nM | 0.00359 s⁻¹ | 62700 M⁻¹ s⁻¹
7 | B7 | 54.4 nM | 0.00321 s⁻¹ | 58900 M⁻¹ s⁻¹

target: T2, hPD-1 Avi-Tag Biotin (AcroBiosystems PD1-H82E4) (human, UniProt Q15116 25-167, biotin on Avi-Tag); experiment: SPR, Ab captured, PD-1 analyte
T2 construct: bought; also called human PD-1
Protocol: as §1

T2 sequence (Q15116 25-167 limits assumed): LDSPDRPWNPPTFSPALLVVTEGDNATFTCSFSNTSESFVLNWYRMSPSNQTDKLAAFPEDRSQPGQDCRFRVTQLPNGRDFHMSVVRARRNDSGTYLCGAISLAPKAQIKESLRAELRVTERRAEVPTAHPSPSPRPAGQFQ

Row | Binder | Kd | koff | kon
8 | B1 | 15.9 nM | 0.00145 s⁻¹ | 91400 M⁻¹ s⁻¹
9 | B2 | 16.1 nM | 0.00147 s⁻¹ | 91100 M⁻¹ s⁻¹
10 | B3 | 13.3 nM | 0.00131 s⁻¹ | 98800 M⁻¹ s⁻¹
11 | B4 | 14.5 nM | 0.00133 s⁻¹ | 92000 M⁻¹ s⁻¹
12 | B5 | 16.2 nM | 0.00142 s⁻¹ | 87400 M⁻¹ s⁻¹
13 | B6 | 15.9 nM | 0.00146 s⁻¹ | 92300 M⁻¹ s⁻¹
14 | B7 | 14.3 nM | 0.00136 s⁻¹ | 95700 M⁻¹ s⁻¹

target: T3, human PD-1 expressed on cells (human, UniProt Q15116 25-288); experiment: flow cytometry, CHO-S hPD-1
T3 construct: whole, on cells; cell line named under assay; also called CHO-S hPD-1; Raji PD-1
Protocol: CHO-S hPD-1 cells were incubated with a 5-fold serial dilution of the indicated humanized antibodies. Antibody binding was detected with goat anti-human IgG-PE. MFI were plotted over the antibody concentration to obtain EC50 values.

T3 sequence (Q15116 25-288): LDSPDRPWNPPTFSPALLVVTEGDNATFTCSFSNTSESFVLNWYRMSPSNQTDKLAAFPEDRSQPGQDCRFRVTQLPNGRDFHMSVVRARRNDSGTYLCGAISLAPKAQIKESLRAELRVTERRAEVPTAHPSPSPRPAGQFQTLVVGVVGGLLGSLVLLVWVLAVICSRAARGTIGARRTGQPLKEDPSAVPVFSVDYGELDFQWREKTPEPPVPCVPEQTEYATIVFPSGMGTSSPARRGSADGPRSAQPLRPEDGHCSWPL

Row | Binder | EC50 | Top MFI
15 | B1 | 4.51 nM | 46200 MFI
16 | B2 | 5.74 nM | 45200 MFI
17 | B3 | 4.54 nM | 46700 MFI
18 | B4 | 3.93 nM | 46800 MFI
19 | B5 | 5.47 nM | 46200 MFI
20 | B6 | 5.85 nM | 45200 MFI
21 | B7 | 3.88 nM | 46000 MFI

target: T4, recombinant hPD-1 (construct not stated) (human, UniProt Q15116 25-167, limits assumed); experiment: SPR, Ab captured, PD-1 analyte
T4 construct: also called huPD-1; Human PD1
Protocol: (§2) Recombinant humanized antibody variants of ZJN296 were expressed as human IgG1 in HEK293 cells. For SPR analysis (Biacore 8K, GE Healthcare) anti-human Fc IgG (Bethyl, A80-304P) was immobilized on CM5 chips (Cytiva) using 1×HBS-EP+ running buffer. […] 10 mM glycine (pH 1.5) as regeneration buffer was injected to flow cells following every dissociation phase.

T4 sequence (Q15116 25-167 limits assumed): as the sequence (Q15116 25-167 limits assumed) above

Row | Binder | Kd | koff | kon
22 | B8 | 8.7 nM | 0.000495 s⁻¹ | 56900 M⁻¹ s⁻¹
23 | B9 | 5.72 nM | 0.000324 s⁻¹ | 56500 M⁻¹ s⁻¹
24 | B10 | 3.22 nM | 0.000201 s⁻¹ | 62600 M⁻¹ s⁻¹
25 | B11 | 6.57 nM | 0.000369 s⁻¹ | 56100 M⁻¹ s⁻¹

target: T5, recombinant cynoPD-1 (construct not stated) (cynomolgus monkey, UniProt B0LAJ3 25-170); experiment: SPR, Ab captured, PD-1 analyte
T5 construct: not shown: probably His as elsewhere
Protocol: as §2

T5 sequence (B0LAJ3 entry or part of it limits assumed): as the sequence (B0LAJ3 entry or part of it limits assumed) above

Row | Binder | Kd | koff | kon
26 | B8 | 104 nM | 0.00641 s⁻¹ | 61500 M⁻¹ s⁻¹
27 | B9 | 72.7 nM | 0.00433 s⁻¹ | 59600 M⁻¹ s⁻¹
28 | B10 | 43.9 nM | 0.00279 s⁻¹ | 63600 M⁻¹ s⁻¹
29 | B11 | 107 nM | 0.00511 s⁻¹ | 47600 M⁻¹ s⁻¹

target: T1, cynoPD-1 His (AcroBiosystems PD1-C5223); experiment: SPR, Ab captured, PD-1 analyte; remark: another data set of the same source
Protocol: (§3) 10 mM glycine (pH 1.5) as regeneration buffer was injected to flow cells following every dissociation phase.

Row | Binder | Kd | koff | kon
30 | B12 | 3 nM | 0.00016 s⁻¹ | 52000 M⁻¹ s⁻¹
31 | B13 | 4.67 nM | 0.00025 s⁻¹ | 55000 M⁻¹ s⁻¹
32 | B14 | 3.2 nM | 0.00019 s⁻¹ | 59000 M⁻¹ s⁻¹

target: T6, hPD-1 His-tagged (human, UniProt Q15116 25-167); experiment: SPR, Ab captured, PD-1 analyte
T6 construct: also called recombinant hPD-1 (AcroBio)
Protocol: as §3

T6 sequence (Q15116 25-167 limits assumed): as the sequence (Q15116 25-167 limits assumed) above

Row | Binder | Kd | koff | kon
33 | B12 | 0.5 nM | 2.9e-05 s⁻¹ | 57000 M⁻¹ s⁻¹
34 | B13 | 0.58 nM | 3.5e-05 s⁻¹ | 60000 M⁻¹ s⁻¹
35 | B14 | 0.66 nM | 4.2e-05 s⁻¹ | 64000 M⁻¹ s⁻¹

From patent US20260207767A1 (ANAVEON, published 2026)
